According to patent publication CN115850461A (INST MICROBIOLOGY CAS, dated 2023):

Legend:
Experiment in all cases: cell-based or functional assay
[1] = biological target: SARS-CoV-2 Omicron BA.4/5 假病毒 S蛋白 (SARS-CoV-2 (Omicron BA.4/5))
[2] = biological target: SARS-CoV-2 Alpha 假病毒 S蛋白 (SARS-CoV-2 (Alpha))
[3] = biological target: SARS-CoV-2 Omicron BA.2.75 假病毒 S蛋白 (SARS-CoV-2 (Omicron BA.2.75))
[4] = biological target: SARS-CoV-2 Omicron BA.2 假病毒 S蛋白 (SARS-CoV-2 (Omicron BA.2))
[5] = biological target: SARS-CoV-2 Beta 假病毒 S蛋白 (SARS-CoV-2 (Beta))
[6] = biological target: SARS-CoV-2 Omicron BA.1 假病毒 S蛋白 (SARS-CoV-2 (Omicron BA.1))
[7] = biological target: SARS-CoV-2 Delta 假病毒 S蛋白 (SARS-CoV-2 (Delta))
[8] = biological target: SARS-CoV-2 Omicron BA.1.1 假病毒 S蛋白 (SARS-CoV-2 (Omicron BA.1.1))

B1: 沙贝病毒广谱人源中和抗体74 (antibody, V domains shown)
VH: QVQLVQSGAQLKKPGESLKISCKGSGYNFSRYWIAWVRHMPGKGLEVMGIIYPDDSDTRYSPSVRGQVTISADKSTSIVYLQWSSLKASDTGIYYCARFGAGMTGMPRYFDTTRWFDPWGQGTQVTVSS
VL: QSVLTQPPSVSGAPGQRVTISCLGGSSNIGAGYDVHWYQHLPGAAPKLLISGNSNRPSGVPARFSGSKSGTSASLAITGLQAEDEADYYCQSYDNDLSQVFGGGTKLTVLG
IC50, 假病毒中和 [1]: 2.81 µg/mL
IC50, 假病毒中和 [2]: 0.76 µg/mL
IC50, 假病毒中和 [3]: 1.7 µg/mL
IC50, 假病毒中和 [4]: 3.49 µg/mL
IC50, 假病毒中和 [5]: 1.62 µg/mL
IC50, 假病毒中和 [6]: 0.91 µg/mL
IC50, 假病毒中和 [7]: 1.7 µg/mL
IC50, 假病毒中和 [8]: 0.2 µg/mL
